Assay results as given in patent publication US20220290162.

Target: Bxb1 serine integrase with ssrA degradation tag (Mycobacteriophage Bxb1?) (UniProt Q9B086)
Assay: cell_activity
Details: attB x attP inversion of P7 promoter, switched cells 42 C vs 37 C; E. coli Nissle

## GGGTTTGTACCGTACACCACTGAGACCGCGGTGGTTGACCAGACAAACCACGA (double strand) [Bxb1 attP]
  activity: > 100 fold

## TCGGCCGGCTTGTCGACGACGGCGGTCTCCGTCGTCAGGATCATCCGGGC (double strand) [Bxb1 attB]
  activity: > 100 fold
